Test results taken from publication PMC8073719, “Biochemical and Biophysical Characterization of Recombinant Human 3-Phosphoglycerate Dehydrogenase” (International Journal of Molecular Sciences, 2021).
Where “and” joins values, the source holds several entries; their conditions need not be identical. Equal entries are not always repeated.

Columns and labels:
hPHGDH [1] = biological target: T1, hPHGDH (Homo sapiens, UniProt O43175); experiment: hPHGDH reverse reaction kinetics (decrease in NADH fluorescence at 450 nm); conditions: for kcat: per monomer
T1 sequence (O43175 1-533): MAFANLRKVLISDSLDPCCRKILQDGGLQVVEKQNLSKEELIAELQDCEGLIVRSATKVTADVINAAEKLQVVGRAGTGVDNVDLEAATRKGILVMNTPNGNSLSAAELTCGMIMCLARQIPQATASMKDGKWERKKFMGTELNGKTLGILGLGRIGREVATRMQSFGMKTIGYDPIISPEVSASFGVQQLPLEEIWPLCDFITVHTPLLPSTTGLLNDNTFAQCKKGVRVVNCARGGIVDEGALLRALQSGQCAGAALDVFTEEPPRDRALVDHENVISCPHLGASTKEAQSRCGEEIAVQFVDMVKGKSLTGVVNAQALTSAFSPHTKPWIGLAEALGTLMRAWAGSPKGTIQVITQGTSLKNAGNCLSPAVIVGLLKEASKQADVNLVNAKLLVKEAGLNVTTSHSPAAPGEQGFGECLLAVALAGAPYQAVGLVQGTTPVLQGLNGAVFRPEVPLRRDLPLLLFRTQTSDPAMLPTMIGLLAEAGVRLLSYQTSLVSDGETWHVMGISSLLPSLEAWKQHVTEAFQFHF
Description: The latter assay was used to determine the apparent kinetic parameters on alternative substrates.

truncated hPHGDH form = biological target: truncated hPHGDH form; design: method as in PMID 29262655; conditions: isothermal calorimetry; cited from earlier work
hPHGDH [2] = biological target: T1, hPHGDH; experiment: Ligand binding by quenching of protein fluorescence at 330 nm
Description: Protein fluorescence spectra were measured at 0.06–0.1 mg/mL protein concentration in 10 mM potassium phosphate, pH 7.0, 15 °C; spectra were recorded using a Jasco FP-750 instrument and were corrected for the buffer contribution. Protein fluorescence spectra were recorded between 300 and 450 nm, with excitation at 280 and 298 nm.
All recorded spectra were subtracted for the contribution of the ligand (added to the buffer only) and were corrected for dilution at every addition. […] In all cases, Kd values were determined by fitting the data to a hyperbolic function.

hPHGDH [3] = biological target: T1, hPHGDH; experiment: Temperature-ramp unfolding (melting temperature) with cofactors; assay type: binding; design: His-tagged full-length hPHGDH was expressed in BL21(DE3) E. coli cells; made in house; host or cells: E. coli BL21(DE3)
Description: Temperature-ramp experiments were performed in 10 mM potassium phosphate, pH 7.0. For this, a software-driven, Peltier-equipped fluorimeter was used to measure the protein fluorescence change at 330 nm or a CD spectropolarimeter to follow the CD signal at 280 nm in order to reproduce a temperature gradient (0.5 °C/min) [31].

M. tuberculosis PHGDH = conditions: reverse reaction; cited from earlier work
E. coli PHGDH = conditions: reverse reaction; cited from earlier work
hPHGDH [4] = biological target: T1, hPHGDH; experiment: Effect of salts, phosphate and serine synthesis metabolites on hPHGDH activity (hydrazine assay); assay type: biochemical; design: His-tagged full-length hPHGDH was expressed in BL21(DE3) E. coli cells; made in house; host or cells: E. coli BL21(DE3); conditions: up to 50 mM final concentration
Description: The effects of KCl, NaCl, MgCl2 and CaCl2 and of pH and temperature on enzyme activity and stability were investigated using the hydrazine assay. […] The dependence of activity on pH was fitted using an equation for three pKa values, according to [44], providing apparent values unrelated to microscopic ones.

[5] = Maximal solubility of inhibitor stock; assay type: physicochemical; conditions: dissolved in DMSO
hPHGDH [6] = biological target: T1, hPHGDH; experiment: Inhibition of hPHGDH activity by inhibitors (hydrazine assay); assay type: biochemical; design: His-tagged full-length hPHGDH was expressed in BL21(DE3) E. coli cells; made in house; host or cells: E. coli BL21(DE3); conditions: kinetics on 3PG at increasing inhibitor concentration
[7] = substrate: NC(=O)c1ccc[n+]([C@@H]2O[C@H](COP(=O)(O)OP(=O)(O)OC[C@H]3O[C@@H](n4cnc5c(N)ncnc54)[C@H](O)[C@@H]3O)[C@@H](O)[C@H]2O)c1; experiment: purified protein, by the assay type; assay type: biochemical, human; conditions: 2.5 mM 3PG, pH 7.0; for Km: other: NAD+ varied, Figure S3C
Description: (§1) PSAT was added to drive the reaction and to avoid product inhibition of hPHGDH.

[8] = substrate: O=C(O)CC(O)C(=O)O; experiment: purified protein, by the assay type; assay type: biochemical, human; conditions: hydrazine assay, pH 7.0
Description: as §1

[9] = substrate: CC(O)CC(=O)O; experiment: purified protein, by the assay type; conditions: hydrazine assay, pH 7.0
[10] = substrate: C[C@@H](O)C(=O)O; experiment: purified protein, by the assay type; conditions: other: forward reaction, substrate varied, 1.5 mM NAD^+, hydrazine assay, 37 °C, pH 7.0, per monomer
[11] = substrate: NC(=O)C1=CN([C@@H]2O[C@H](COP(=O)(O)OP(=O)(O)OC[C@H]3O[C@@H](n4cnc5c(N)ncnc54)[C@H](O)[C@@H]3O)[C@@H](O)[C@H]2O)C=CC1; experiment: purified protein, by the assay type; conditions: other: reverse reaction, NADH varied, 0.5 mM PHP, 37 °C, pH 7.0
[12] = substrate: O=C(O)C(=O)COP(=O)(O)O; experiment: purified protein, by the assay type; conditions: pH 7.0
[13] = substrate: O=C(O)C(O)C(O)C(=O)O; experiment: purified protein, by the assay type; conditions: other: forward reaction, substrate varied, 1.5 mM NAD^+, hydrazine assay, 37 °C, pH 7.0
[14] = substrate: O=C(O)C(O)COP(=O)(O)O; experiment: purified protein, by the assay type; conditions: pH 7.0
[15] = substrate: O=C(O)CC(=O)C(=O)O; experiment: purified protein, by the assay type; conditions: other: reverse reaction, substrate varied, 5 mM NADH, 37 °C, pH 7.0
[16] = biological target: the molecule itself; experiment: SEC; Superdex 200 Increase column, potassium phosphate pH 7.0 (20 mM with 0.15 M NaCl); major peak approx. 240 kDa; monomers to tetramer
[17] = biological target: the molecule itself; experiment: SEC; Superdex 200 Increase column, increasing potassium phosphate pH 7.0 (100, 250, 500 mM; 0.15 M NaCl added at 100 mM); minor peak ~480 kDa confirmed by anti-His Western blot; tetramers to octamer
[18] = reverse reaction, NADH varied, 0.5 mM PHP, 37 °C, pH 7.0
[19] = other: forward reaction, substrate varied, […] NAD^+, 37 °C
[20] = other: forward reaction, substrate varied, 1.5 mM NAD^+, 37 °C
[21] = other: reverse reaction (discussion value)
[22] = other: reverse reaction, substrate varied, 150 µM NADH, 37 °C
[23] = other: reverse reaction, substrate varied, 5 mM NADH, 37 °C
[24] = other: forward reaction, substrate varied, 120 µM NAD^+, PSAT-coupled (1) and hydrazine (2) assays, 37 °C
[25] = other: forward reaction, substrate varied, 1.5 mM NAD^+, hydrazine assay, 37 °C

NC(=O)C1=CN([C@@H]2O[C@H](COP(=O)(O)OP(=O)(O)OC[C@H]3O[C@@H](n4cnc5c(N)ncnc54)[C@H](O)[C@@H]3O)[C@@H](O)[C@H]2O)C=CC1 [NADH]
Km (hPHGDH [1]; [18]): 560 µM
kcat (hPHGDH [1]; [18]): 3.4 s⁻¹
maximal rate of Michaelis–Menten fit (hPHGDH [1]; reverse reaction, NADH varied, 0.5 mM PHP, Figure S4B): 3.3684
Kd (truncated hPHGDH form): 0.2 µM
Kd (hPHGDH [2]; Kd (NAD^+; main phase of NADH binding), discussion value): ~130 µM
Kd (hPHGDH [2]; Kd, first phase, free enzyme, 15 °C): 0.49 ± 0.03 µM
Kd (hPHGDH [2]; Kd, second phase, free enzyme, 15 °C): 168 µM and 169 µM
amplitude of protein fluorescence quenching, first phase (hPHGDH [2]; free enzyme): ~35%
amplitude of protein fluorescence quenching, second phase (hPHGDH [2]; free enzyme): 65%
Tm, circular dichroism signal at 280 nm (hPHGDH [3]; 120 µM NAD^+ or 100 µM NADH, protein alone 47.5): 51.0 °C
Tm, CD (220 nm) (hPHGDH [3]; +120 μM NAD^+ or +100 μM NADH, hPHGDH alone 47.2 ± 0.5): 51.0 ± 0.3 °C
Tm, Fluorescence (330 nm) (hPHGDH [3]; +120 μM NAD^+ or +100 μM NADH, hPHGDH alone 48.4 ± 2.1): 55.7 °C and 55.7 ± 0.1 °C

O=C(O)C(=O)COP(=O)(O)O [PHP, 3-phosphohydroxypyruvate]
Ki (hPHGDH [1]; Ki (substrate inhibition), reverse reaction, 150 µM NADH, 37 °C, pH 7.0): 2230 µM
Ki (hPHGDH [1]; Ki (substrate inhibition), reverse reaction, 5 mM NADH, 37 °C, pH 7.0): 1260 µM
Ki (hPHGDH [1]; Ki of fit with substrate inhibition, reverse reaction, 150 µM NADH, Figure S4A): 2230 µM
Ki (hPHGDH [1]; Ki of fit with substrate inhibition, reverse reaction, 5 mM NADH, Figure S4A,C,D): 1260 µM
kinetic efficiency kcat/Km ratio, reverse reaction vs forward reaction on 3PG (hPHGDH [1]; higher than for the forward reaction on 3PG): 20 fold
maximal rate of fit with substrate inhibition (hPHGDH [1]; reverse reaction, 150 µM NADH, Figure S4A): 1.2871
maximal rate of fit with substrate inhibition (hPHGDH [1]; reverse reaction, 5 mM NADH, Figure S4A,C,D): 2.282
kcat (hPHGDH [1]; reverse reaction, substrate varied, 150 µM NADH, 37 °C, pH 7.0): 1.3 s⁻¹
Km (M. tuberculosis PHGDH): 85 µM
Km (E. coli PHGDH): 40 µM
effect on hPHGDH activity on […] 3PG (hPHGDH [4]): not affected

CBR-5884
maximal solubility [5]: ≤ 1000 µM
mechanism of inhibition (hPHGDH [6]): noncompetitive inhibition mechanism

B1: recombinant human D-3-phosphoglycerate dehydrogenase, His-tagged, full length (enzyme, UniProt O43175 1-533, looked up)
chain: T1 sequence (O43175 1-533)
notes: D-3-phosphoglycerate dehydrogenase, human, 533 amino acids; synthetic gene back-translated from GenBank CAG33076.1, codon-optimised for E. coli, cloned in pETM11 (NcoI/XhoI); The N-terminal 6xHis tag of pETM11 can be cut by TEV protease, but no cleavage is reported; the tagged monomer has a theoretical mass of 59.776 kDa and was detected with an anti-His antibody in the SEC peaks; Tetramer in …
Km ([7]; PSAT-coupled assay): 133 µM
Km ([7]; hydrazine assay): 162 µM
kcat/Km ([7]; other: forward reaction, NAD^+ varied, assays 1,2, 37 °C): 15100 M⁻¹ s⁻¹
Km [8, 19]: 4480 ± 870 µM
kcat [8, 19]: 0.44 ± 0.01 s⁻¹
kcat/Km [8, 19]: 98 M⁻¹ s⁻¹
Km ([8]; other: substrate varied, […] NAD+, Figure S3B,D-F): 4480 µM
Km [9, 20]: 41000 ± 19000 µM
kcat [9, 20]: 2.53 s⁻¹
kcat/Km [9, 20]: 61 M⁻¹ s⁻¹
Km ([9]; other: substrate varied, 1.5 mM NAD+, Figure S3B,D-F, 37.0 °C): 41800 µM
kcat [10]: 5.41 s⁻¹
kcat/Km [10]: 36 M⁻¹ s⁻¹
Km [11]: 559 ± 75 µM
kcat [11]: 3.37 s⁻¹
kcat/Km [11]: 6000 M⁻¹ s⁻¹
Km [12, 21]: 10 µM
kcat [12, 21]: 2.28 ± 0.14 s⁻¹
kcat/Km [12, 21]: 228000 M⁻¹ s⁻¹
Km ([12]; other: reverse reaction, 150 µM NADH, Figure S4A): 14.1 µM
Km ([12]; other: reverse reaction, 5 mM NADH, Figure S4A,C,D): 10.2 µM
Km [12, 22]: 0.014 ± 0.003 [Ki = 2.23 ± 0.37] mM
kcat [12, 22]: 1.29 ± 0.09 s⁻¹
kcat/Km [12, 22]: 91100 M⁻¹ s⁻¹
Km [12, 23]: 0.010 ± 0.003 [Ki = 1.26 ± 0.25] mM
kcat [12, 23]: 2.28 ± 0.14 s⁻¹
kcat/Km [12, 23]: 228000 M⁻¹ s⁻¹
Km [13]: 5550 ± 2730 µM
kcat [13]: 0.41 s⁻¹
kcat/Km [13]: 74 M⁻¹ s⁻¹
Km ([14]; other: 3PG varied, 120 µM NAD+, PSAT-coupled assay, Figure S3A, 37.0 °C): 252 µM
Km ([14]; other: 3PG varied, 120 µM NAD+, hydrazine assay, Figure S3A, 37.0 °C): 317 µM
Km [14, 24]: 255 ± 59 µM
kcat [14, 24]: 1.48 s⁻¹
kcat/Km [14, 24]: 5800 M⁻¹ s⁻¹
Km [14, 25]: 360 ± 61 µM
kcat [14, 25]: 2.97 s⁻¹
kcat/Km [14, 25]: 8250 M⁻¹ s⁻¹
Km ([14]; other: substrate varied, 1.5 mM NAD+, hydrazine assay, Figure S3B,D-F, 37.0 °C): 359 µM
Km [15]: 0.90 ± 0.42 [Ki = 152 ± 56] mM
kcat [15]: 1.76 ± 0.20 s⁻¹
kcat/Km [15]: 1960 M⁻¹ s⁻¹
stoichiometry N [16]: 4
stoichiometry N [17]: 8
